Values joined by “and” are separate entries in the source; they are usually repeats but may differ in a detail not shown here. Equal entries are not always repeated.

Test [1] concerns the target T1, Activated leukocyte cell adhesion molecule (ALCAM), on cells (human, UniProt Q13740 28-583).
T1 construct: whole, on cells; also called guide antigen
T1 sequence (looked up): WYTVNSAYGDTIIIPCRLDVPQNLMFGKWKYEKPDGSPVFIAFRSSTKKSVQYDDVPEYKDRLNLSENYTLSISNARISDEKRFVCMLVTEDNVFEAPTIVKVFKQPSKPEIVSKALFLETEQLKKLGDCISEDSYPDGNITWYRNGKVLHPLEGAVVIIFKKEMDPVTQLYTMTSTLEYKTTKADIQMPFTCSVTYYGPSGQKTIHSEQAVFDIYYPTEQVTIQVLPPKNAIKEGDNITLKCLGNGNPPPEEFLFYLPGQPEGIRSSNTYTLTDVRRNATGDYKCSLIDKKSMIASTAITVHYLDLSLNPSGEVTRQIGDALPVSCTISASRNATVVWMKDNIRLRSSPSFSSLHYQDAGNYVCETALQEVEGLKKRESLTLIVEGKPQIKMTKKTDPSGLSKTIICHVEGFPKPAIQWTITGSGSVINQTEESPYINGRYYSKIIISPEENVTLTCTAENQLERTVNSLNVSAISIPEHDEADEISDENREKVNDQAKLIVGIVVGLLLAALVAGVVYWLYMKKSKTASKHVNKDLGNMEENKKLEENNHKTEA
Put plainly: apparent KD on cells.

In test [2] the target is T2, Low-density lipoprotein receptor-related protein 6 (LRP6), human, on cells (human, UniProt O75581 20-1613). The experiment in a line: cell-based or functional assay.
Test [3] addresses T2, Low-density lipoprotein …. The experiment in a line: apparent KD, flow cytometry on HEK293 cells that express LRP6, curve fit. As to the method: FIGS. 7A-7E depict the results illustrating characterization of anti-LRP6 scFvs and derived bsAbs. FIG. 7A depicts the results of anti-LRP6 scFv-phage screening by flow cytometry analysis. Individual scFv-phage clones were separately amplified from the 3rd round panning output against LRP6E1E2 or LRP6E3E4 domain. scFv-phage particles were incubated with parental HEK293 or LRP6-transfected HEK293 cells and detected by biotinylated anti-M13 IgG and PE-labeled streptavidin. Relative MFI values (folds of phage binding to LRP6+ cells against LRP6− cells) were plotted on a graph. FIGS. 7B and 7C depict the results of flow cytometry analysis for binding kinetics of E34N19 (B) or E12N21 (C) scFv-Fc to HEK293 cells. The apparent KD was calculated based on the non-linear curve fittings by Prism 5 program. FIG. 7D depicts the results of cell-binding analysis of mono- or bi-specific anti-LRP6 antibodies. Binding of E34N19 scFv-Fc, E34N19 IgG, H/6 TaFv-Fc, 6/H bsIgG, or H3 IgG (each 100 nM) to HEK293 cells originally expressing ALCAM was analyzed by flow cytometry. […]
The apparent antibody binding affinity was measured on target cells by FACS as described (An, Zhu). […] After 1 hr incubation, cells were washed and analyzed by FACS as described above. The apparent KD was determined by a curve fit method using MFI values as described (Benedict, An, Zhu).
A general note: A flow cytometer gives signals particle by particle.

In test [4] the target is T3, Ephrin type-A receptor 2 (EphA2), human, on cells (human, UniProt P29317 24-976).
T3 construct: whole, on cells; also called guide antigen
The experiment in a line: FACS.

Test [5] deals with T4, EphA2, murine, on CT26 cells (mouse, UniProt Q03145 26-977).
T4 construct: whole, on cells; also called murine antigen
The experiment in a line: FACS on murine colon cancer cell line CT26 that expresses EphA2.

Test [6] addresses Low-density lipoprotein receptor-related protein 6 (LRP6), human, on cells (human) (UniProt O75581). Put plainly: cell-based or functional assay.

T2 sequence (O75581 20-1613): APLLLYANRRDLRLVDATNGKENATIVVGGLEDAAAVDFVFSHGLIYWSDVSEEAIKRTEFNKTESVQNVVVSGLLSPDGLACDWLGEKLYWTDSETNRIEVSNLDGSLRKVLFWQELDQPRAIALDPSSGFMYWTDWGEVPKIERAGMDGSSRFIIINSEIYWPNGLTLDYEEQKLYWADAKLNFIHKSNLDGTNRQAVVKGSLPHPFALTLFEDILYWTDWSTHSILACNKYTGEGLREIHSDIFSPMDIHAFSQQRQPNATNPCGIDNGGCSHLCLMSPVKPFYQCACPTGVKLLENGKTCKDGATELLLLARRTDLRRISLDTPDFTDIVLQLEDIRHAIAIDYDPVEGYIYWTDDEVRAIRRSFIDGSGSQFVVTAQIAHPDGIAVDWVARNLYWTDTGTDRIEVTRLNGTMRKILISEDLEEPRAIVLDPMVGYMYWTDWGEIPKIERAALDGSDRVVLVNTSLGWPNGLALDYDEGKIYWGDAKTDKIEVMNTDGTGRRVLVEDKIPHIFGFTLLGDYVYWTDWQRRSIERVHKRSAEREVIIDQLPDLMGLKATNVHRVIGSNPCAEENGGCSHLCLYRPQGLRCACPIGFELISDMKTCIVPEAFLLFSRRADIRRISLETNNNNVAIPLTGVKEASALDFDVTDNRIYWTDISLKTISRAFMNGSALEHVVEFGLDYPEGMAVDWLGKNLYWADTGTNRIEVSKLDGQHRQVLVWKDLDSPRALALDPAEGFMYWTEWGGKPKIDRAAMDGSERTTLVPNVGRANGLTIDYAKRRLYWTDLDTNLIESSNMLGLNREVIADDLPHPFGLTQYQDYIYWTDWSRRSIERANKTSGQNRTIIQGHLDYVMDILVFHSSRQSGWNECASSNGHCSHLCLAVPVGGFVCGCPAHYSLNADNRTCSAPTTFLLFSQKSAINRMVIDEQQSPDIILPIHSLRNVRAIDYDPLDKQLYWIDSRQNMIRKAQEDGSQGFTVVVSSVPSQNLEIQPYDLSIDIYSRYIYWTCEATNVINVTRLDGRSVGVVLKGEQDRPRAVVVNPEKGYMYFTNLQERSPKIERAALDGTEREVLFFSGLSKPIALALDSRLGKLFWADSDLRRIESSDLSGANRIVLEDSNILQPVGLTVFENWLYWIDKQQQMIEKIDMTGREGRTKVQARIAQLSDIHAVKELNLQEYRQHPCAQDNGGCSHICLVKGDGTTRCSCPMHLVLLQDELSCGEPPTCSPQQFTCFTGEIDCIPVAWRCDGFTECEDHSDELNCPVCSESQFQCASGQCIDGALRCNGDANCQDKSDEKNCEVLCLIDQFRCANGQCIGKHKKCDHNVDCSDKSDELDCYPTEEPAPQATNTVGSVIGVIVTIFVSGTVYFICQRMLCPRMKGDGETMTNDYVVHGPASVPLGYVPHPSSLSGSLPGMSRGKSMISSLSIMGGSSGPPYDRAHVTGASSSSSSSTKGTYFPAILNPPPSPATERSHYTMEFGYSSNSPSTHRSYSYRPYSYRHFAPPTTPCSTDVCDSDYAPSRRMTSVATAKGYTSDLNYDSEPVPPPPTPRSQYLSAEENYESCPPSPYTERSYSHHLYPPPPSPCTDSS
T4 sequence (Q03145 26-977): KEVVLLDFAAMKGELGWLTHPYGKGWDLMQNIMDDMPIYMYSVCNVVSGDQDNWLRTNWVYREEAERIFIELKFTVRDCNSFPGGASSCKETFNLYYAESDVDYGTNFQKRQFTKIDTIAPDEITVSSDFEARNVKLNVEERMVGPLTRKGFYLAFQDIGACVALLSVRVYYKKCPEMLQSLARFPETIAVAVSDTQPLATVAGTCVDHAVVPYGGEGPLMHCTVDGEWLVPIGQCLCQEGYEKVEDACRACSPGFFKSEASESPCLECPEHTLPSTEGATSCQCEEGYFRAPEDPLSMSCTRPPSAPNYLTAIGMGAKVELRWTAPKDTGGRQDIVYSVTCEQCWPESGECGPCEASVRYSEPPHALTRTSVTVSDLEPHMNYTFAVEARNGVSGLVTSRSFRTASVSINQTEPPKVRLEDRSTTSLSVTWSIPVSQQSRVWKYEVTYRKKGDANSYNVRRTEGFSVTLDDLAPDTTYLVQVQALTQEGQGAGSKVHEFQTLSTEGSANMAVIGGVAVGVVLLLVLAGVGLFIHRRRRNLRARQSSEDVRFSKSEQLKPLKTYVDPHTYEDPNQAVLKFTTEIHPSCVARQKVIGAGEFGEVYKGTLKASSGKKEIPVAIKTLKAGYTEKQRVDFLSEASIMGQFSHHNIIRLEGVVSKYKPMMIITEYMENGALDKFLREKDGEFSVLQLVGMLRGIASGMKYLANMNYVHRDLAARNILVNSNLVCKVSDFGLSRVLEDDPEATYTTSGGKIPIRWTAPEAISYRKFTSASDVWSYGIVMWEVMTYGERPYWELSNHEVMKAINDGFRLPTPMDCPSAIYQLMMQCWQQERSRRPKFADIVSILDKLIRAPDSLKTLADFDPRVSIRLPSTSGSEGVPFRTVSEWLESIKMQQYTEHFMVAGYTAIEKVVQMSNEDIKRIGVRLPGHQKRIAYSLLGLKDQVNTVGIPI
Chain of Low-density lipoprotein receptor-related protein 6 (LRP6), human, on cells (human) (O75581 20-1613): as the sequence (O75581 20-1613) above
T3 sequence (P29317 24-976): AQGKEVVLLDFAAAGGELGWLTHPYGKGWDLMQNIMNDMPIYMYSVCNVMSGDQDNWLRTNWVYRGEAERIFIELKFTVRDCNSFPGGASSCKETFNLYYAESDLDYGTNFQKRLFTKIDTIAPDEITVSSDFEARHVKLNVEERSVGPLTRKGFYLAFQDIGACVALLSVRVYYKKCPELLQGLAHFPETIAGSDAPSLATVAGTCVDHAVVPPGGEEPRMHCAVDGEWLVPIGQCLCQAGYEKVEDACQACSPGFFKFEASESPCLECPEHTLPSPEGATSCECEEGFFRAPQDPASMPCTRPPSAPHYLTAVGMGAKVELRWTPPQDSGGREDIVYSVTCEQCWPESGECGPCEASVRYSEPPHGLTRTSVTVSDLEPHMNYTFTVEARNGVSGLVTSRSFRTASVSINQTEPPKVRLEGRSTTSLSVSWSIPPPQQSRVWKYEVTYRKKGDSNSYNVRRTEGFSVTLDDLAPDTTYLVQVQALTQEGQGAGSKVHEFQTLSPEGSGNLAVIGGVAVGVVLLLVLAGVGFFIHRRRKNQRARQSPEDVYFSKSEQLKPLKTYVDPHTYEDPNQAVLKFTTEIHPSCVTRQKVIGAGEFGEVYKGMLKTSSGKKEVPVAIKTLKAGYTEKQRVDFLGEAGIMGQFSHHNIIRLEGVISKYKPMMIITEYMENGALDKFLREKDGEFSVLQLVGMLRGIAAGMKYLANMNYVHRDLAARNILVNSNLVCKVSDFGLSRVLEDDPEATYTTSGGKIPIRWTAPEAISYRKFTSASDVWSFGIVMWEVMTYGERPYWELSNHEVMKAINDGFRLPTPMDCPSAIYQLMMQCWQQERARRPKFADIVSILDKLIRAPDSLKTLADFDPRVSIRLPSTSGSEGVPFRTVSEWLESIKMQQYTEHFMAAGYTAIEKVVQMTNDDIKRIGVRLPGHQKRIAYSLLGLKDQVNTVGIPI

B1: H3 IgG (antibody, V domains shown)
VH: QVQLVESGGGLVQPGGSLRLSCAASGFTFSSYAMSWVRQAPGKGLEWVSAISGSGGSTYYADSVKGRFTISRDNSKDTLYLQMNSLRAEDTAVYYCASRSLLDYWGQGTLVTVSS
VL: NFMLTQNPAVSVALGQTVRITCQGDSLRSYYASWYQQKPGQAPLLVIYGKNNRPSGIPDRFSGSSSGNTASLTITGAQAEDEADYYCNSRDSSGNPVFGGGTKVTVL
notes: IgG; also called anti-ALCAM H3 IgG; guide antibody H3
In the case of B1, the Kd in test [1] turned out to be 0.00734 nM.

B2: E12N21 scFv-Fc (Fc fusion)
scFv: QVQLQESGGGLVKPGGSLRLSCAASGFTFSSYWMSWVRQAPGKGLEWVANIKQDGSEKYYVDSVKGRFTISRDNSKNTLYLQMNSLRAEDTAIYYCAKTMTASAWLGGGRDSWGQGTLVTVSSGGGGSGGGGSGGGGSQSVLTQDPAVSVALGQTVRITCQGDSLRTLSTNWYQQKSGQAPVLVIYGNSNRPSGVPDRFSGSSSGNTASLTITGAQAEDEADYYCQSYDNSVRGSRVFGTGTKLTVL
notes: scFv gene cloned into unmodified pFUSE-hIgG1-Fc2; also called monoclonal E12N21; not shown: human IgG1 Fc of vector pFUSE-hIgG1-Fc2 (InvivoGen)
B2: in test [2], the “IC50, STF reporter, Wnt1-transfected HEK293” value was around 3.5 nM and the “IC50, Wnt1-induced STF reporter activity, HEK293” value turned out to be 2.63 nM. In addition, the Kd in test [3] is around 5.2 nM.

B3: E34N19 scFv-Fc (Fc fusion)
scFv: QVNLRESGGGLVQPGGSLRLSCAASGFTFSSYAMSWVRQAPGKGLEWVSAISGSGGSTYYADSVKGRFTISRDNSKNTLYLQMNSLRAEDTAVYYCAKVRGHGGNSGWVDYWGQGTLVTVSSGGGGSGGGGSGGGGSQSVLTQDPAVSVALGQTVKITCQGDSLRTYYTSWYQQRPGQAPILVLYANTHRPSSIPDRFSGSSSGTTASLTITGAQAEDEADYYCNSRDSSGNYLFGGGTKLTVL
notes: scFv gene cloned into unmodified pFUSE-hIgG1-Fc2; In some assays biotin-labelled as the detection reagent; also called monospecific E34N19; anti-effector mAb E34N19; not shown: human IgG1 Fc of vector pFUSE-hIgG1-Fc2 (InvivoGen)
For the molecule B3, in test [2], the “EC50 (so in the source), STF reporter, Wnt3a, HEK293” value was determined as 3.02 nM; the “IC50, STF reporter, Wnt3a-transfected HEK293” value is ~3 nM and 3.43 nM. For the same molecule, the Kd in test [3] is around 1.4 nM.

B4: RYR (anti-EphA2 guide antibody, format not stated) (antibody, V domains shown)
VH: QVQLQESGGGLVQPGGSLRLSCAASGFTFSSYSMNWVRQAPGKGLEWVSYISSSSSTIYYADSVKGRFTISRDNAKNSLYLQMNSLRAEDTAVYYCARYRLPDFWSGYPNYGMDVWGQGTTVTVSS
VL: QSVLTQPPSVSGAPGQRVTISCTGSSSNIGAGYDVHWYQQLPGTAPKLLIYGNSNRPSGVPDRFSGSKSGTSASLAITGLQAEDEADYYCQSYDSSLSGHVVFGGGTKLTVL
notes: also called HCA-F1
B4: the binding result in test [4] and in test [5] was “binds” each time.

B5: E34N19/H3 bsIgG (bispecific antibody, part only; not given: constant regions and CL-scFv linker, not shown: another chain or arm of the molecule; a dimerising Fc or GST; small tags and cut ends)
VH: QVNLRESGGGLVQPGGSLRLSCAASGFTFSSYAMSWVRQAPGKGLEWVSAISGSGGSTYYADSVKGRFTISRDNSKNTLYLQMNSLRAEDTAVYYCAKVRGHGGNSGWVDYWGQGTLVTVSS
VL: QSVLTQDPAVSVALGQTVKITCQGDSLRTYYTSWYQQRPGQAPILVLYANTHRPSSIPDRFSGSSSGTTASLTITGAQAEDEADYYCNSRDSSGNYLFGGGTKLTVL
scFv: QVQLVESGGGLVQPGGSLRLSCAASGFTFSSYAMSWVRQAPGKGLEWVSAISGSGGSTYYADSVKGRFTISRDNSKDTLYLQMNSLRAEDTAVYYCASRSLLDYWGQGTLVTVSSGGGGSGGGGSGGGGSNFMLTQNPAVSVALGQTVRITCQGDSLRSYYASWYQQKPGQAPLLVIYGKNNRPSGIPDRFSGSSSGNTASLTITGAQAEDEADYYCNSRDSSGNPVFGGGTKVTVL
In the case of B5, the IC50, STF reporter, Wnt3a-transfected HEK293 in test [6] is 0.0446 nM.

B6: E34N19 IgG (antibody, V domains shown)
VH: B5 VH
VL: B5 VL
As to B6, the “IC50, STF reporter, Wnt3a-transfected HEK293” value in test [2] worked out at 5.2 nM.

B7: PD32 (anti-ALCAM guide antibody, format not stated) (antibody, V domains shown)
VH: QVQLQESGGGLVQPGGSLRLSCAASGFTFSSYALSWVRQAPGKGLEWVSAISGSGGSTYYAGSVKGRFTISRDNSKNTLYLQMNSLRAEDTAVYYCAKGLIASHWGQGTLVTVSS
VL: SELTQDPAVSVALGQTVRITCQGDSLRSYYASWYQQKPGQAPVLVIYGKNNRPSGIPDRFSGSSSGNTASLTITGAQAEDEADYYCNSRDSSGIHLVFGGGTKLTVL
notes: Called 'guide antibody' and 'corresponding mAbs'; also called GPD32
Regarding B7, in test [1], the Kd worked out at 0.388 nM.

(Values after patent publication US20190330365A1 (University of California, published 2019).)
